From the supplement of paper PMC7877785
± gives the uncertainty stated by the source.

Experiment: self-splicing fitness, log relative to wild type (ln ratio); higher = more splicing; Tetrahymena group I intron in knt gene, E. coli kanamycin selection, DiMSum; sequences stand for … in CUCUCU…GGAGGGAAAAGUUAUCAGGCAUGCACCUGGUAGCUAGUCUUUAAACCAAUAGAUUGCAUCGGUUUAAAAGGCAAGACCGUCAAAUUGCGGGAAAGGGGUCAACAGCCGUUCAGUACCAAGUCUCAGGGGAAACUUUGAGAUGGCCUUGCAAAGGGUAUGGUAAUAAGCUGACGGACAUGGUCCUAACCACGCAGCCAAGUCCUAAGUCAACAGAUCUUCUGUUGAUAUGGAUGCAGUUCACAGACUAAAUGUCGGUCGGGGAAGAUGUAUUCUUCUCAUAAGAUAUAGUCGGACCUCUCCUUAAUGGGAGCUAGCGGAUGAAGUGAUGCAACACUGGAGCCGCUGGGAACUAAUUUGUAUGCGAAAGUAUAUUGAUUAGUUUUGGAGUACUCGUGGUCG
Outline: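 Fitness was computed with DiMSum as the error-weighted combination of replicate fold changes, kanamycin versus none, each normalised to wild type. The library randomised all eight intron nucleotides of the P1ex region, with the intron placed in the knt kanamycin-resistance gene on pET-22b(+) in E. coli BL21(DE3). Six replicate transformations were grown overnight at 37°C or 30°C on LB agar with or without 25 μg/mL kanamycin, plus 100 μg/mL carbenicillin, 50 μM IPTG and 0.2% rhamnose. Pooled colonies were amplicon-sequenced on an Illumina HiSeq 2500.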

Row | Sequence | self-splicing fitness (ln) (30 °C) | self-splicing fitness (ln) (37 °C)
1 | UCGAAGCAAUAUUACGUUAU | -4.01 ± 0.28 | -1.16 ± 0.15
2 | UGGUAGCAAUAUUACGCUUG | -0.988 ± 0.092 | -0.402 ± 0.11
3 | ACUUAGCAAUAUUACGCGAA | -1.74 ± 0.12 | -2.14 ± 0.2
4 | AUCUAGCAAUAUUACGAGUU | -2.66 ± 0.16 | -0.737 ± 0.14
5 | UGACAGCAAUAUUACGCUUG | -0.879 ± 0.074 | -0.702 ± 0.11
6 | ACCGAGCAAUAUUACGACUC | -1.44 ± 0.29 | -1.59 ± 0.22
7 | CACGAGCAAUAUUACGGGUU | -3.2 ± 0.16 | -2.81 ± 0.22
8 | CGCUAGCAAUAUUACGGGGU | -3.83 ± 0.21 | -3.12 ± 0.21
9 | CAAGAGCAAUAUUACGGGCG | -0.815 ± 0.1 | -0.188 ± 0.12
10 | GCGAAGCAAUAUUACGACAC | -0.709 ± 0.21 | 0.892 ± 0.34
11 | CUUAAGCAAUAUUACGGACC |  | -0.536 ± 0.36
12 | CCGAAGCAAUAUUACGGUGU | -3.91 ± 0.21 | -2.09 ± 0.14
13 | GAUCAGCAAUAUUACGCGGC | -3.7 ± 0.37 | -2.89 ± 0.4
14 | UCCCAGCAAUAUUACGACUG | -3.58 ± 0.2 | -3.16 ± 0.32
15 | UACCAGCAAUAUUACGCGCU | -3.47 ± 0.37 | -1.77 ± 0.22
16 | CGCUAGCAAUAUUACGCCCA | -0.642 ± 0.11 | -0.0477 ± 0.14
17 | AAUAAGCAAUAUUACGAGAA | -3.24 ± 0.38 | -1.55 ± 0.27
18 | AGAUAGCAAUAUUACGUUUA | -2.12 ± 0.13 | -1.43 ± 0.13
19 | ACCUAGCAAUAUUACGUUCA | -1.4 ± 0.099 | -1.05 ± 0.12
20 | GUAUAGCAAUAUUACGACUC | -0.23 ± 0.14 | 0.0743 ± 0.23
21 | AAAAAGCAAUAUUACGGUUU | -0.478 ± 0.05 | -0.225 ± 0.064
22 | GGACAGCAAUAUUACGAAUC | -0.0402 ± 0.12 | 0.32 ± 0.17
23 | AUGGAGCAAUAUUACGCCAA | -1.45 ± 0.44 | -1.03 ± 0.38
24 | GUAUAGCAAUAUUACGAUGG | -3.43 ± 0.35 | -0.958 ± 0.24

Row | Sequence | self-splicing fitness (ln) (30 °C) | self-splicing fitness (ln) (37 °C)
25 | ACAAAGCAAUAUUACGAGUA | -3.03 ± 0.16 | -1.7 ± 0.11
26 | UGCGAGCAAUAUUACGUUUA | -2.19 ± 0.16 | -2.99 ± 0.14
27 | UUUCAGCAAUAUUACGAGCG | -0.768 ± 0.09 | -0.289 ± 0.11
28 | CAUUAGCAAUAUUACGACCG | 0.0272 ± 0.082 | 0.169 ± 0.1
29 | ACGUAGCAAUAUUACGAUGC | -3.24 ± 0.22 | -1.51 ± 0.22
30 | ACACAGCAAUAUUACGCAAG | -1.7 ± 0.1 | -0.825 ± 0.11
31 | AUUUAGCAAUAUUACGGGAA | -2.24 ± 0.26 | -1.84 ± 0.19
32 | UAUUAGCAAUAUUACGAGUU | -2.88 ± 0.16 | -0.971 ± 0.15
33 | UCGAAGCAAUAUUACGCCGG | -2.32 ± 0.13 | -2.18 ± 0.19
34 | CGCGAGCAAUAUUACGACUU |  | -1.2 ± 0.47
35 | CAUAAGCAAUAUUACGGUCC | -3.2 ± 0.25 | -2.28 ± 0.31
36 | CCUAAGCAAUAUUACGAAGC | -2.92 ± 0.18 | -1.92 ± 0.28
37 | CACCAGCAAUAUUACGCCAC | -3.58 ± 0.16 | -2.42 ± 0.17
38 | CCGAAGCAAUAUUACGUUAG | -1.97 ± 0.093 | -0.908 ± 0.082
39 | CAAUAGCAAUAUUACGCGUC | -4.09 ± 0.25 | -3 ± 0.22
40 | GCAUAGCAAUAUUACGCAGC |  | -1.68 ± 0.44
41 | CUUCAGCAAUAUUACGAACC | -1.67 ± 0.41 | -1.18 ± 0.35
42 | UCUUAGCAAUAUUACGUUGU | -3.61 ± 0.19 | -1.24 ± 0.14
43 | UUUCAGCAAUAUUACGUUUG | -1.91 ± 0.086 | -1.12 ± 0.1
44 | CCGAAGCAAUAUUACGGUUU | -4.44 ± 0.25 | -2.23 ± 0.17
45 | UAGCAGCAAUAUUACGAGGA | -3.39 ± 0.17 | -2.06 ± 0.13
46 | GAAAAGCAAUAUUACGCAAG | -2.02 ± 0.11 | -1.46 ± 0.14
47 | CCCCAGCAAUAUUACGCGCG | -2.69 ± 0.14 | -2.97 ± 0.22
48 | AGUUAGCAAUAUUACGAGCC | -1.84 ± 0.13 | -1.12 ± 0.13
